First the molecules themselves.
B1: OR4K15 (parent)
chain: GUUAACGGUCAUAGGCCAUGGAAACUAGGAGCACCAUUUCGCUGCCAGUGAAGAAAUGAACAAAGAAAAUCUGGGCCAGGCAGGCAUCAAAAGAAAUAGUCUUGCGCUCAACCAGAAAGUCUGUAAUCAUUUUAAGGGUA

Variants of B1 are the subject of this data set. The data set can be described thus: self-cleavage, relative activity (ratio to wild type); higher = more cleavage; in vitro, sequencing; the parent is a self-cleaving ribozyme.
Regarding GUUAACGGUCAUAGGCCAUGGAAACUAGGAGCACCAUUUCGCUGCCAGUGAAGGAAUGAACAAAGAAAAUCUGGGCCAGGCAGGCAUCAAAAGAAAUAGUCUUGCGCUCAACCAGAAAGUCUGUAGUCAUUUUAAGGGUA [A54G A126G], the self-cleavage was determined as 0.64. On to GUUAACGGUCAUAGGCCAUGGAAACUAGGAGCACCAUUUCGCUGCCCGUGAAGAAAUGAACAAUGAAAAUCUGGGCCAGGCAGGCAUCAAAAGAAAUAGUCUUGCGCUCAACCAGAAAGUCUGUAAUCAUUUUAAGGGUA [A47C A64U], for which the self-cleavage is 1.56. Next, GAUAACGGUCAUAGGCCAUGGAAACUAGGAGCACCAUUUCGCUGCCAGUGAAGAAAUGAACAAAGAAAAUCUGGGCCAGGCAGGCAUCAAAAGAAAUAGUCUUGCGCUCAACCAGAAAGUCUGUAAUCAUUUUAUGGGUA [U2A A135U]: 0.96; GUUAACGGUCAUAGGCCAUGGAAACUAGGAGCACCAUUUCGCUGCCAGUGAAGAAAUGAACAAAGAAAAUCUGGGCCAGGCAGGCAUCAAAAGAAGUAGUCUUGCGCUCAACCGGAAAGUCUGUAAUCAUUUUAAGGGUA [A96G A114G]: 0.44; GUUAACGGUCUUAGGCCAUGGAAACUAGGAGCACCAUUUCGCUGCCAGUGAAGAAAUGAACGAAGAAAAUCUGGGCCAGGCAGGCAUCAAAAGAAAUAGUCUUGCGCUCAACCAGAAAGUCUGUAAUCAUUUUAAGGGUA [A11U A62G]: 0.96. With GUUAACGGUCAUAGGCCAUGGAAACUAGGAGCACCAUCUCGCUGCCAGUGAAGAAAUGAACAAAGAAAAUCUGGGCCAGGCAGGCAUCAAAAGAAAUAGUCUUGCGCUCAACCAGAAAGUCUGUAAUCAUUUUAGGGGUA [U38C A135G], the self-cleavage is 1.9. Regarding GUUAACGGUCAUAGGCCAUGGAAACUAGGAGCACCAUUUCGCUGCCAGUGAAGAAAUGAACAAAGAGAAUCUGGGCCAGGCAGGCAUCAAAAGAAAUAGUCUUGCGCUCAACCAGAAAGUCUGUAAUCGUUUUAAGGGUA [A67G A129G], the self-cleavage came to 0.85. Next, GUUAACGGUCAUAGGCCAUGGAAACUAGGAGCACCAUUUCGCUGCCAGUGAAGAAAUGAACAAAGAAAAUCUGGGCCAGGCAGGCAUCAAAAGAAAUGGUCUUGCGCUCAACCAGAAAGUCUGUAAUCAUUUUAGGGGUA [A98G A135G]: 0.83; GUUAACGGUCAUAGGCCAUGGAAACUAGGAGCACCAUUUCGCUGCCAGUGCAGAAAUGAACAAAGAAAAUCUGGGCCAGGCAGGCAUCAAAAGAAAUAGUCUUGCGCCCAACCAGAAAGUCUGUAAUCAUUUUAAGGGUA [A51C U108C]: 0.01. Consider GUUAACGGUCAUAGGCCAUGGAAACUGGGAGCACCAUUUCGCUGCCAGUGAAGAAAUGAACAAAGAAAAUCUGGGCCAGGCAGGCAUCAAAAGAAAUAGUCUUGCGCUCAACCAGAAAGUCUGUAAUCAUUUUAAGGGUA [A27G], for which the self-cleavage amounted to 1.1. For the variant GUUAACGGACAUAGGCCAUGGAAACUAGGAGCACCAUUUCGCUGCCAGUGAAGAAAUGAACAAAGAAAAUCUGGGCCAGGCGGGCAUCAAAAGAAAUAGUCUUGCGCUCAACCAGAAAGUCUGUAAUCAUUUUAAGGGUA [U9A A82G], the self-cleavage turned out to be 1.13.

Take GUUAACGGUCAUAGGCCAUGGAAACUAGGAGCACCAUUUCGCUGCCAGUGAAGAAAUGAACAAAGAAAAUCUGGGCCAGGCAGGCAUCAAGAGAAAUAGUCUCGCGCUCAACCAGAAAGUCUGUAAUCAUUUUAAGGGUA [A91G U103C]: the self-cleavage stood at 0.46.

In the case of GUUAACGGUCAUAGGCCAUGGAAACUAGGAGCACCAUUUCGCUGCCAGUGAGGAAAUGAACAAAGAAAAUCUGGGCCAGGCUGGCAUCAAAAGAAAUAGUCUUGCGCUCAACCAGAAAGUCUGUAAUCAUUUUAAGGGUA [A52G A82U], the self-cleavage was 0.2. GUUAACGGUCAUAGGCCAUGGAAACUAGGAGCACCAUUUCGCUGCCAGUGAGGAAAUGAACAAAGAAAAUCUGGGCCAGGCAGGCAUCAAAAGAAAUAGUCUUGCGCUCAACCAGAAAGUCUGUAAUUAUUUUAAGGGUA [A52G C128U]: the self-cleavage is 1.26. AUUAACGGUCAUAGGCCAUGGAAACUAGGAGCACCAUUUCGCUGCCAGUGAAGAAAUGAACAAAGAAAAUCUGGGCCAGGCAGGCAUCAAAAGAAAUAGUCUUGCGCUCAACCAGAAAGUCCGUAAUCAUUUUAAGGGUA [G1A U122C]: the self-cleavage worked out at 0.48.

With GUUAACGGUCAUAGGCCAUGGAAACUAGGAGCACCAUUUCGCUGCCAGUGAAGAAAUGAACAAAGAAAUUCUGGGCCAGGCAGGCAUCAAAAGAAAUAGUCUUGCGCUCAACCAGAAAGUCUGUAAUCAUCUUAAGGGUA [A69U U131C], the self-cleavage is 1.33. Next, GUUUACGGUCAUAGGCCAUGGAAACUAGGAGCACCAUUUCGCUGCCAGUGAAGAAAUGAACAAAGAAAAUCUGGGCCAGGCAGGCAUCAAAAGAAAUAGUCUUGCGCUCAACCAGAAAGUCUGUAAUCAUUCUAAGGGUA [A4U U132C]: 2.14; GUUACCGGUCAUAGGCCAUGGAAACUAGGAGCUCCAUUUCGCUGCCAGUGAAGAAAUGAACAAAGAAAAUCUGGGCCAGGCAGGCAUCAAAAGAAAUAGUCUUGCGCUCAACCAGAAAGUCUGUAAUCAUUUUAAGGGUA [A5C A33U]: 2.21; GUUAACGGUCAUAGGCCAUGGAAACUAGGAGCGCCAUUUCGCUGCCAGUGAAGAAAUGAACAAAGAAAAUCUGGGCCAGGCAGGCAUCAAAAGAAAUAGUCUUGCGCUCAACCAGAAAGUCUGUAAUCGUUUUAAGGGUA [A33G A129G]: 0.35. As for GUUAACGGUCAUAGGCCAUGGAAACUAGGAGCACCAUUUCGCUGCCAGUGAAGAAAUGAACAAAGAAAAUCUGGGCCAGGCAGGCACCUAAAGAAAUAGUCUUGCGCUCAACCAGAAAGUCUGUAAUCAUUUUAAGGGUA [U87C A89U], the self-cleavage worked out at 0.65. Under GUUAACGGUCAUAGGCCAUGGAAACUAGGAGCACCAUUUCGCUGCCAGUGAAGAAAUGAACAAAGAAAAUCUGGGCCAGGCAGGCAUCGAAAGAAAUAGUCUUGCGCUCAACCAGAAUGUCUGUAAUCAUUUUAAGGGUA [A89G A118U] stands 0.54.

Source of the values: the RNAGym collection of RNA variant scans (doi:10.7554/elife.90254).
